Source: PMC10272122 (2023)

Molecular target: PDF-2180 RBD-hFc (PDF-2180)
Test: BLI

B1: ACE2 from Pipistrellus pipistrellus (Ppip ACE2) (receptor)
chain: TTEEEARDFLDKFNSEAENLSHESALASWDYNTNITDENAQKMNEADSKWSDFYKEQSKRAQAFPLQEIQNLTIKLQLQILQQNGSSVLTAEKSKRLSTILTTMSTIYSTGKVCNPNNPQQCFTLSGLEDIMEKSKDYHQRLWVWEGWRSEVGKQLRPLYEEYVVLKNEMARGNNYEDYGDYWRGDYETEGEDGYNYSRNQLMEDVDRIFLEIKPLYEQLHAYVRAKLMNAYPSRISPTGCLPAHLLGDMWGRFWTNLYNLTVPFEQKQNIDVTETMKKQSWDAEKIFKEAEKFYLSVGLYSMTQGFWNNSMLTEPSDGRQVVCHPTAWDLGEDDFRIKMCTKVTMDDFLTAHHEMGHIQYDMAYAKQPYLLRNGANEGFHEAVGEVMSLSVATPKHLKGMGLLPSDFSEDNETEINFLLKQALNIVGTLPFTYMLEKWRWMVFEGKIPKEQWMEKWWEMKREIVGVVEPLPHDETYCDPASLFHVANDYSFIRYFTRTILEFQFQEALCKIAKHEGPLHKCDISNSTEAGKKLKDMLELGKSKPWTYALNQIARTKEMDAKPLLNYFEPLFSWLKKQNGNSVGWSADWSPYSEQSLKVRISLISALGEKAYEWNDNEMYLFRSSVAYAMRVYFSKMNKTIPFTAEDVRVSDEKKRVSFKFFVTSPTNISDIIPRSEVEDAIRMSRSRINDA
Binder B1 has a Kd of 0.417 nM and a koff of 5.54e-05 s⁻¹.
